Four molecules from patent US20170209564A1 can be followed below.

Experiment [1] addresses FL HA H1N1 (influenza A virus H1N1). As to the kind of experiment: SEC-MALS of FL HA with Fab; theoretical value for trimer with 3 Fabs in brackets. Background: SEC sorts molecules by how far they enter the pores of the column.
In the next experiment the target is sH1 mini-HA GW1.5E2-FFH. As to conditions: remark: other sources report otherwise.
Experiment [2] concerns the target T1, sH1 mini-HA GW1.5E2-FFH (Influenza A virus H1N1 A/Brisbane/59/2007). As to the kind of experiment: SEC-MALS with Fab fragments. The conditions noted are these: remark: other sources report otherwise.
A further experiment addresses s127H1. As to the kind of experiment: SEC-MALS of polypeptide with Fab. The conditions noted are these: remark: other sources report otherwise.
In another experiment the target is s55G7. The experiment can be described thus: SEC-MALS of polypeptide with Fab. As to conditions: remark: other sources report otherwise.
The target in another experiment is s6E12. The experiment can be described thus: SEC-MALS of polypeptide with Fab. As to conditions: remark: other sources report otherwise.
In the next experiment the target is s74H9. As to the kind of experiment: SEC-MALS of polypeptide with Fab. As to conditions: remark: other sources report otherwise.
In a further experiment the target is s86B4. As to the kind of experiment: SEC-MALS of polypeptide with Fab. The conditions noted are these: remark: other sources report otherwise.
Experiment [3] concerns the target T1, sH1 mini-HA GW1.5E2-FFH (Influenza A …). The experiment can be described thus: biolayer interferometry (Octet), apparent Kd; CR6261. The conditions noted are these: remark: other sources report otherwise. A general note: In BLI a coated tip is dipped into the sample, and binding shifts an interference pattern.

Consider Fab fragment of CR6261, for which, in experiment [1], the Mw of protein in complex with CRF6261, observed worked out at 396 kDa.
With Fab fragment of CR9114, in experiment [1], the Mw of protein in complex with CRF9114, observed was found to be 343 kDa.

B1: Fab fragment of CR6261 (Fab, V domains shown)
VH: EVQLVESGAEVKKPGSSVKVSCKASGGPFRSYAISWVRQAPGQGPEWMGGIIPIFGTTKYAPKFQGRVTITADDFAGTVYMELSSLRSEDTAMYYCAKHMGYQVRETMDVWGKGTTVTVSS
VL: QSVLTQPPSVSAAPGQKVTISCSGSSSNIGNDYVSWYQQLPGTAPKLLIYDNNKRPSGIPDRFSGSKSGTSATLGITGLQTGDEANYYCATWDRRPTAYVVFGGGTKLTVLG
In the experiment with sH1 mini-HA GW1.5E2-FFH, B1 yielded a Mw of protein in complex with CRF6261, observed of 201 kDa. Further, in [2], the Fab fragments bound per trimer (Fab fragments per trimer) is 3. In addition, the MW complex with CR6261, observed in the experiment with s127H1 was 74 kDa; in the experiment with s55G7 it was 66 kDa; in the experiment with s6E12, 67 kDa; in the experiment with s74H9 it was 72 kDa; in the experiment with s86B4 it was 75 kDa.

B2: monoclonal antibody CR6261 (antibody, V domains shown)
VH: B1 VH
VL: B1 VL
Take B2: the Kd in experiment [3] was determined as 1 nM.
